# Experimental data reported in IntAct's records for PubMed 29039417.
# B1: BBSome complex member BBS5 (Homo sapiens), Q8N3I7 (parent)
# chain: MSVLDALWEDRDVRFDLSAQQMKTRPGEVLIDCLDSIEDTKGNNGDRGRLLVTNLRILWHSLALSRVNVSVGYNCILNITTRTANSKLRGQTEALYILTKCNSTRFEFIFTNLVPGSPRLFTSVMAVHRAYETSKMYRDFKLRSALIQNKQLRLLPQEHVYDKINGVWNLSSDQGNLGTFFITNVRIVWHANMNDSFNVSIPYLQIRSIKIRDSKFGLALVIESSQQSGGYVLGFKIDPVEKLQESVKEINSLHKVYSASPIFGVDYEMEEKPQPLEALTVEQIQDDVEIDSDGHTDAFVAYFADGNKQQDREPVFSEELGLAIEKLKDGFTLQGLWEVMS
# partner: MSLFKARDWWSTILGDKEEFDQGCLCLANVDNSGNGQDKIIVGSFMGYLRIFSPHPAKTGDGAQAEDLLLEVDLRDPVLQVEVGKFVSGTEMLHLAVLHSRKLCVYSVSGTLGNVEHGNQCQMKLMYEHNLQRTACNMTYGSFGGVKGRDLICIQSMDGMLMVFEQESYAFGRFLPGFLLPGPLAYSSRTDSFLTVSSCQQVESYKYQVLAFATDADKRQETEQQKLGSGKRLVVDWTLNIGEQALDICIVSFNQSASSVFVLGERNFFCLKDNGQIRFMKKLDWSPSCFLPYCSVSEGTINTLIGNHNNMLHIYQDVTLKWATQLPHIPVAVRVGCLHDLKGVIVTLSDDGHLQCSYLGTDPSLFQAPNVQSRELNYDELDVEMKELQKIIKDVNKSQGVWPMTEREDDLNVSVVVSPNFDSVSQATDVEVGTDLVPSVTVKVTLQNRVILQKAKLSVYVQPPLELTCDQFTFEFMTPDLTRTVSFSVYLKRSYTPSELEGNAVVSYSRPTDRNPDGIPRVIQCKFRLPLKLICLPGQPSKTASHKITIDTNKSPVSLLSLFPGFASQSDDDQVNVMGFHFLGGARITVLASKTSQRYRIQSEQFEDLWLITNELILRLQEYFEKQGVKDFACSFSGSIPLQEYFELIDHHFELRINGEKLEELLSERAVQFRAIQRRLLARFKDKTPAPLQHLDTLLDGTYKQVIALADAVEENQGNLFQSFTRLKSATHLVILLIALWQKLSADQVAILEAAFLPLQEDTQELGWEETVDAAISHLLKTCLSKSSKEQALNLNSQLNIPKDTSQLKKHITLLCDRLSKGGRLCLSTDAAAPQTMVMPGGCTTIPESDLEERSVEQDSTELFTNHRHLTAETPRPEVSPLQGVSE
# Variants of: B1
# Details: with pthb1_human BBS9, Q3SYG4
row,Variant,effect of a mutation on the interaction
1,L98K,with no effect
2,L98E,with no effect
3,L98A,with no effect
4,L77A,with no effect
5,L77E,with no effect
6,L77K,with no effect
7,G90E,with no effect
8,G90K,with no effect
9,G90A,with no effect
10,N54A,with no effect
11,N54E,disrupting interaction strength
12,N54K,with no effect
13,S103K,with no effect
14,S103A,with no effect
15,S103E,with no effect
16,T104I,disrupting interaction strength
17,T104A,with no effect
18,T104E,with no effect
19,T104K,with no effect
20,R89K,with no effect
21,R89A,with no effect
22,R89E,with no effect
23,L58K,disrupting interaction strength
24,L58E,with no effect
25,L58A,with no effect
26,K100A,with no effect

row,Variant,effect of a mutation on the interaction
1,K100E,with no effect
2,Y73A,with no effect
3,Y73E,with no effect
4,Y73K,with no effect
5,L55K,with no effect
6,L55A,disrupting interaction strength
7,L55F,disrupting interaction strength
8,L55E,disrupting interaction strength
9,T92A,with no effect
10,T92K,with no effect
11,T92E,with no effect
12,N68A,disrupting interaction strength
13,N68K,with no effect
14,N68E,with no effect
15,T83E,with no effect
16,T83A,disrupting interaction strength
17,T83K,with no effect
18,I57A,with no effect
19,I57E,with no effect
20,I57K,with no effect
21,I97K,disrupting interaction strength
22,I97E,with no effect
23,I97A,with no effect
24,T99A,with no effect
25,T99E,disrupting interaction strength
26,T99K,with no effect

row,Variant,effect of a mutation on the interaction
1,C101E,with no effect
2,C101A,with no effect
3,C101K,with no effect
4,C75A,with no effect
5,C75K,with no effect
6,C75E,with no effect
7,T53E,with no effect
8,T53K,with no effect
9,T53A,with no effect
10,S86K,with no effect
11,S86A,with no effect
12,S86E,with no effect
13,L62A,with no effect
14,L62E,with no effect
15,L62K,with no effect
16,V52E,with no effect
17,V52A,with no effect
18,V52K,disrupting interaction strength
19,F106K,with no effect
20,F106A,with no effect
21,F106E,with no effect
22,R66K,with no effect
23,R66E,with no effect
24,R66A,with no effect
25,V71E,with no effect
26,V71A,with no effect

row,Variant,effect of a mutation on the interaction
1,V71K,with no effect
2,V67E,with no effect
3,V67K,with no effect
4,V67A,with no effect
5,S65A,with no effect
6,S65E,with no effect
7,S65K,with no effect
8,Q91E,with no effect
9,Q91A,with no effect
10,Q91K,with no effect
11,A84E,with no effect
12,A84K,with no effect
13,L64A,with no effect
14,L64K,with no effect
15,L64E,with no effect
16,V69A,with no effect
17,V69K,with no effect
18,V69E,with no effect
19,N74A,with no effect
20,N74E,with no effect
21,N74K,with no effect
22,A94K,with no effect
23,A94E,with no effect
24,R56E,disrupting interaction strength
25,R56K,disrupting interaction strength
26,R56G,disrupting interaction strength

row,Variant,effect of a mutation on the interaction
1,R56A,disrupting interaction strength
2,N85A,with no effect
3,N85K,with no effect
4,N85E,with no effect
5,I76E,disrupting interaction strength
6,I76K,with no effect
7,I76A,with no effect
8,I76T,disrupting interaction strength
9,N78K,with no effect
10,N78E,with no effect
11,N78A,with no effect
12,S61F,disrupting interaction strength
13,S61A,with no effect
14,S61E,with no effect
15,S61K,with no effect
16,L51K,with no effect
17,L51E,with no effect
18,L51A,with no effect
19,L88A,with no effect
20,L88K,with no effect
21,L88E,with no effect
22,T81K,with no effect
23,T81E,with no effect
24,T81A,with no effect
25,R105K,with no effect
26,R105A,with no effect

row,Variant,effect of a mutation on the interaction
1,R105E,with no effect
2,E93K,with no effect
3,E93A,with no effect
4,L50A,disrupting interaction strength
5,L50E,with no effect
6,L50K,with no effect
7,R49K,with no effect
8,R49E,with no effect
9,R49A,with no effect
10,W59A,with no effect
11,W59E,with no effect
12,W59K,with no effect
13,G72E,with no effect
14,G72S,disrupting interaction strength
15,G72A,with no effect
16,G72K,with no effect
17,N102A,with no effect
18,N102K,with no effect
19,N102E,with no effect
20,R82E,with no effect
21,R82A,with no effect
22,R82K,with no effect
23,K87A,with no effect
24,K87E,with no effect
25,E107A,with no effect
26,S70A,with no effect

row,Variant,effect of a mutation on the interaction
1,S70K,with no effect
2,S70E,with no effect
3,T80K,with no effect
4,T80I,disrupting interaction strength
5,T80E,with no effect
6,T80A,disrupting interaction strength
7,Y96A,with no effect
8,Y96E,with no effect
9,Y96K,with no effect
10,L95K,with no effect
11,L95E,disrupting interaction strength
12,L95A,with no effect
13,A63K,with no effect
14,A63E,with no effect
15,H60A,with no effect
16,H60E,with no effect
17,H60K,with no effect
18,I79K,with no effect
19,I79A,with no effect
20,I79E,with no effect
